Source: patent US20070015228A1

Columns and labels:
human CD20 (human) [1] = molecular target: human CD20 (human) (UniProt P11836); assay: cell ELISA on CD20-transfected CHO clone C12M, suspension format, 300,000 cells/well
human CD20 (human) [2] = molecular target: human CD20 (human) (UniProt P11836); assay: cell ELISA on CD20-transfected CHO clone 2H3, suspension format, 300,000 cells/well
human CD20 (human) [3] = molecular target: human CD20 (human) (UniProt P11836); assay: Scatchard analysis, iodinated RITUXAN with unlabeled RITUXAN on adherent CHO clone 6D7 cells expressing human CD20 (n=3)
human CD20 (human) [4] = molecular target: human CD20 (human) (UniProt P11836); assay: cell ELISA on CD20-transfected CHO clone 1H6, suspension format, 300,000 cells/well
human CD20 (human) [5] = molecular target: human CD20 (human) (UniProt P11836); assay: Scatchard analysis, iodinated RITUXAN with unlabeled RITUXAN on adherent CHO clone 4H10 cells expressing human CD20 (n=3)
human CD20 (human) [6] = molecular target: human CD20 (human) (UniProt P11836); assay: Scatchard analysis, iodinated RITUXAN with unlabeled RITUXAN on adherent CHO clone C12M cells expressing human CD20 (n=3)
human CD20 (human) [7] = molecular target: human CD20 (human) (UniProt P11836); assay: Scatchard analysis, iodinated RITUXAN with unlabeled RITUXAN on WIL2 cells in suspension (n=3)
human CD20 (human) [8] = molecular target: human CD20 (human) (UniProt P11836); assay: Scatchard analysis, iodinated RITUXAN with unlabeled RITUXAN on CHO clone 2H3 cells in suspension (n=3)

human CD20 (human), sequence (P11836 whole entry): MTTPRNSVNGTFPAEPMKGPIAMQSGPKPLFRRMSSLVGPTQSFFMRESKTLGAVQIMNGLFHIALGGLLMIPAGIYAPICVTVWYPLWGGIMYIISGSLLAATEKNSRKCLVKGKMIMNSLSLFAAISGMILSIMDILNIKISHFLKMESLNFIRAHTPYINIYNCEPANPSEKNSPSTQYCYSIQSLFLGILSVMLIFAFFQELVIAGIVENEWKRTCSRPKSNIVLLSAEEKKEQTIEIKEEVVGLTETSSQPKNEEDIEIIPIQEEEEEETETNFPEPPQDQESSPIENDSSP

Q: What does the source list for RITUXAN® (rituximab) (antibody)?
A: EC50 (read off the curve) (human CD20 (human) [1]): 0.2 mg/L; EC50 (read off the curve) (human CD20 (human) [2]): 0.2 mg/L; Kd (human CD20 (human) [3]): 5.97 nM; EC50 (read off the curve) (human CD20 (human) [4]): 0.2 mg/L; Kd (human CD20 (human) [5]): 5.5 nM; Kd (human CD20 (human) [6]): 13.7 nM; Kd (human CD20 (human) [7]): 3.91 nM; Kd (human CD20 (human) [8]): 8.57 nM
